Experiment [1] concerns the target PD-1 on GS-J2/PD-1 cells (human) (UniProt Q15116). As to the kind of experiment: cell-based or functional assay.
Experiment [2] has as its target 人PD-1蛋白 (human) (UniProt Q15116). As to the kind of experiment: competition ELISA: human PD-1 coated, antibody titrated together with biotin-labelled PD-L1 (competitor).
The target is the same in experiment [3]. The experiment is described as follows: BLI (ForteBio), antibody loaded on sensor, PD-1 protein 100-6.25 nM in solution. For orientation: BLI is a label-free optical method that tracks binding on a fibre tip over time.

A word on the EC50: it is the concentration that produces a half-maximal response. High values mean a need for much substance, low ones an effect from little substance. One may read the Kd as the concentration at which binding is half-saturated. A higher Kd goes with weaker binding. The term koff denotes the rate constant with which the complex falls apart. As usually defined, the kon is the rate constant with which the complex forms.

Sequence of 人PD-1蛋白 (human) (Q15116 25-167 limits assumed): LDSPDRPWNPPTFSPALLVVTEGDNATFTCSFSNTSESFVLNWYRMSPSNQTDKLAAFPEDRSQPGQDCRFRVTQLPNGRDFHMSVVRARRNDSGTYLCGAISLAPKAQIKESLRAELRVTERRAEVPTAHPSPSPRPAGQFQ
Sequence of PD-1 on GS-J2/PD-1 cells (human) (Q15116 25-288 limits assumed): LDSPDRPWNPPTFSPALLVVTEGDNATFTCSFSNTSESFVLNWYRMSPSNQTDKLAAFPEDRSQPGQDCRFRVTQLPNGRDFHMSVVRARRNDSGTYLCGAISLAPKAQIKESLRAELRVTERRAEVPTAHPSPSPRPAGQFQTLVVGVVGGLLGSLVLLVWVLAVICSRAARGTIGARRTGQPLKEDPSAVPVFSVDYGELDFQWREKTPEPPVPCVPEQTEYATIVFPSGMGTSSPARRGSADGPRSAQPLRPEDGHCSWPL

Substance Keytruda (antibody) registered an EC50(nM), luciferase reporter (RLU, 激活百分比) in GS-J2/PD-1 cells co-cultured with GS-C2/PD-L1 cells in experiment [1] of 0.142 nM. This substance also registered an EC50 with 人PD-1蛋白 (human) [2] of 110 nM. Besides, in the experiment with 人PD-1蛋白 (human) [3], the dissociation constant (Kd) came to 1.01 nM, the koff was found to be 0.000286 s⁻¹ and the kon was determined as 283000 M⁻¹ s⁻¹.
Take Opdivo (antibody): the concentration for a half-maximal effect (EC50) with 人PD-1蛋白 (human) [2] worked out at 175 nM. The same substance registered a Kd in the experiment with 人PD-1蛋白 (human) [3] of 1.63 nM.

The values are drawn from patent CN113372445A.
